# Results published in article PMC12582304, “Asymmetric gating of a homopentameric ion channel GLIC revealed by cryo-EM” (Proceedings of the National Academy of Sciences of the …, 2025).
# B1: Gloeobacter violaceus proton-gated ion channel (GLIC), wild type (natural protein)
# chain: VSPPPPIADEPLTVNTGIYLIECYSLDDKAETFKVNAFLSLSWKDRRLAFDPVRSGVRVKTYEPEAIWIPEIRFVNVENARDADVVDISVSPDGTVQYLERFSARVLSPLDFRRYPFDSQTLHIYLIVRSVDTRNIVLAVDLEKVGKNDDVFLTGWDIESFTAVVKPANFALEDRLESKLDYQLRISRQYFSYIPNIILPMLFILFISWTAFWSTSYEANVTLVVSTLIAHIAFNILVETNLPKTPYMTYTGAIIFMIYLFYFVAVIEVTVQHYLKVESQPARAASITRASRIAFPVVFLLANIILAFLFFG
# notes: GLIC, proton-gated pentameric ligand-gated ion channel of Gloeobacter violaceus; Homopentamer in DOPE/POPC/POPS nanodiscs; As I recall, the construct is the mature channel without its signal peptide, about 317 residues; also called GLIC-WT; WT; source: E. coli C41, purified (amylose resin, SEC), nanodisc-reconstituted
# Biological target: the molecule itself
# Test: cryo-EM structure; nanodisc-reconstituted GLIC-WT at pH 4.0; earlier dataset (ref. 44) reprocessed with symmetry expansion, focused classification and particle reorientation; C5 or no symmetry imposed
protein,measurement,value
B1,stoichiometry N,5
